# B1: COV2-2489 (human mAb, recombinant IgG1) (antibody, V domains shown)
# VH: QLQLQESGPGLVKPSETLSLTCTVSGGSISSTTYYWGWIRQPPGKGLEWIASIYYSGSTYYNPSLKSRLTVSVDTSKNQFSLKLSSVTAADTAVYYCARQWKWFGEAWYFDLWGRGTLVTVSS
# VL: not shown
# B2: COV2-2676 (human mAb, recombinant IgG1) (antibody, V domains shown)
# VH: QVQLVQSGAEVKKPGSSVKVSCKASGGTFSSYAINWVRQAPGQGLEWMGGIIPIFGTANYAQKFQGRVTFTADESTSTAYMEVSSLRSEDTAVYYCARSCGDCYSADLDFWGQGTLVTVSS
# VL: EIVLTQSPATLSLSPGERATLSCRASQSISSFLAWYQQKPGQAPRLLIYDASNRATGIPARFSGSGSGTDFTLTISSLEPEDFAVYYCQRRSNWPPFTFGPGTKVDIK
# Target: SARS-CoV-2 (strain Wuhan-Hu-1) spike protein, wild type, full-length expression construct (SARS-CoV-2, Wuhan-Hu-1, UniProt P0DTC2)
# Test: flow cytometry on cells
row,Binder,binding result
1,B1,binds
2,B2,binds

# From PMC7962591 (Cell, 2021)
